Earlier results, collected in article PMC5450005.
Like-named read-outs stand apart in the source and are kept apart here.

What was measured:
[1] = biological target: ApelinR (Rattus norvegicus) (UniProt Q9JHG3)
[2] = biological target: ApelinR (Rattus norvegicus) (UniProt Q9JHG3); remark: listed apart in the source

Chain of UniProt Q9JHG3 (Q9JHG3 whole entry): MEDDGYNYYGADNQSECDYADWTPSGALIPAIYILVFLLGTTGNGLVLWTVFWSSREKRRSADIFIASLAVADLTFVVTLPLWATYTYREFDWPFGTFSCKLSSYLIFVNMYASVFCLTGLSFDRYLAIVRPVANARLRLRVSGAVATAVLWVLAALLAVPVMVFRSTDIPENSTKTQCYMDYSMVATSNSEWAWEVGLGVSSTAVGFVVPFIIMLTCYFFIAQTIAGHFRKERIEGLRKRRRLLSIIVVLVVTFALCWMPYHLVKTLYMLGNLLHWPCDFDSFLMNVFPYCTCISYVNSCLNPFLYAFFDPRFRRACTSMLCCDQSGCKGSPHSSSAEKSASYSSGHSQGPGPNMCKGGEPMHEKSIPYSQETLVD

| Substance | Ki [1] | Ki [2] |
| --- | --- | --- |
| pE13F (apelin-13) (from UniProt Q9ULZ1) | 0.56 nM | – |
| K17F (apelin-17) (from UniProt Q9ULZ1) | – | 0.06 nM |
